From patent US20170022281A1 (AbbVie / Abbott, published 2017)
Where a chain is given by its changes, count along the chain named.

T1: human PRLR ECD-Fc fusion protein (human, UniProt P16471 25-233)
T1 construct: not shown: Fc region (captured by goat anti-human Fc)
T1 sequence: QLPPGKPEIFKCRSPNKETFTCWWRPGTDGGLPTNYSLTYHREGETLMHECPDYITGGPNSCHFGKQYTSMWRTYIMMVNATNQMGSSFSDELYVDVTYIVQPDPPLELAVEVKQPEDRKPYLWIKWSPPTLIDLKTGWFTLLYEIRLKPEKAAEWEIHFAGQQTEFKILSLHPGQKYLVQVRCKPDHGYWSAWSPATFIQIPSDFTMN

T2: cyno PRLR ECD-his6 protein (cyno)
T2 chain: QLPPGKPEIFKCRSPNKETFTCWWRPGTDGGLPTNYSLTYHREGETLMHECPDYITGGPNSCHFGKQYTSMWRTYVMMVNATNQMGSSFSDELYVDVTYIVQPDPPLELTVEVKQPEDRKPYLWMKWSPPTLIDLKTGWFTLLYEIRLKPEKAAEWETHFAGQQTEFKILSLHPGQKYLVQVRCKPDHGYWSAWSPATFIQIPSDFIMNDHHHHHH

T3: human PRLR on cells (human, UniProt P16471 25-622)
T3 sequence: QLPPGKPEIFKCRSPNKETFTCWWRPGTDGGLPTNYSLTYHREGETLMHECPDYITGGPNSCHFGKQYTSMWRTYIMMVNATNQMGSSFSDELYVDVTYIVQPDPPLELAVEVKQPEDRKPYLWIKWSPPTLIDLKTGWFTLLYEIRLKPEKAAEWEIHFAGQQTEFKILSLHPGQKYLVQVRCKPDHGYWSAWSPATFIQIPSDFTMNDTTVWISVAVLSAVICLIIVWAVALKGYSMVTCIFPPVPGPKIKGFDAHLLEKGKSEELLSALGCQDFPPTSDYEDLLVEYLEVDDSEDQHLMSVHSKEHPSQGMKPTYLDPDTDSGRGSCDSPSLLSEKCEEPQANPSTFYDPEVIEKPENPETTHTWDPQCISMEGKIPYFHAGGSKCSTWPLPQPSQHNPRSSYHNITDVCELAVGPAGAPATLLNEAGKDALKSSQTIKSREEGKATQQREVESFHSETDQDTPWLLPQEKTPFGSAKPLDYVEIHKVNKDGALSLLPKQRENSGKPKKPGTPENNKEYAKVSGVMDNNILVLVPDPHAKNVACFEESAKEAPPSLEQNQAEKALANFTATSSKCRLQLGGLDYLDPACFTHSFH

T4: mouse PRLR on Baf3-mPRLR cells (mouse, UniProt Q08501 20-608)
T4 sequence (looked up): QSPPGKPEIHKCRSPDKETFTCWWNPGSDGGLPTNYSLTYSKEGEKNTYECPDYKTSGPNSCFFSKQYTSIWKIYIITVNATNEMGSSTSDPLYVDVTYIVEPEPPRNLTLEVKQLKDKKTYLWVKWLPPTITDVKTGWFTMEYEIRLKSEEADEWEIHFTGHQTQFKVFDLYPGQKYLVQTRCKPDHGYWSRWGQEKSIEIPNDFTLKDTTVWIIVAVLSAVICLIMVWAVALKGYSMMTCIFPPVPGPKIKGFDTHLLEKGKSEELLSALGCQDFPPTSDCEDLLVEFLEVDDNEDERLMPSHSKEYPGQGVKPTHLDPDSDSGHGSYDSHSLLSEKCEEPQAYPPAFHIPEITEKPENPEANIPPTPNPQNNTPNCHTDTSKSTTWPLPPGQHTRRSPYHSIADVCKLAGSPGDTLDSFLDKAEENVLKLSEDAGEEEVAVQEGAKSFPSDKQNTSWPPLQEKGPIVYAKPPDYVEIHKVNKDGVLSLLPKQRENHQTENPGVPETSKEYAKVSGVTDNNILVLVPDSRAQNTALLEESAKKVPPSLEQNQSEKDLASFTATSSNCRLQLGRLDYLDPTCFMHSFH

B1: Ab12 (antibody, V domains shown)
VH: DVQLQESGPGLVKPSQSLSLTCTVTGYSITSDYAWNWIRQFPGNKLEWMGYIGYSGRTSFNPSLKSRISITRDTSKNQFFLQLNSVTTEDTATYYCARGGFAMDYWGQGTSVTVSS
VL: QIVLTQSPGIMSASPGEKVTMTCSASSSVTYMYWYQQKPRSSPKPWIYLTSNLASGVPARFSGSGSGTSYSLTISSMEAEDGATYYCQQWSSTPPLTFGGGTKLELN
notes: murine monoclonal, isotype G2a; reported as PRLR agonist; also called murine Ab12
B2: Ab6 (antibody, V domains shown)
VH: QVQLQQPGAELVMPGSSVKLSCKASGYTFTTYWMHWVKQRPGQGLEWIGEIDPSDSYSNYNQKFKDKATLTVDKSSSTAYMQLSSLTSEDSAVYYCARNGGLGPAWFSYWGQGTLVTVSA
VL: DIVMTQSQKFMSTTVGDRVSITCKASQYVGTAVAWYQQKPGQSPKLLIYSASNRYTGVPDRFTDSGSGTDFTLTISNLQSEDLADYFCQQYSSYPWTFGGGTKLEIK
notes: murine monoclonal, isotype G1; also called murine Ab6
B3: Ab10 (antibody, V domains shown)
VH: EVQLHQSGPELVKPGASVKISCKASGYTFTDYNMHWMKQSHGKSLEWIGYFYPYNGGTGYNQEFKNKATLTVDISSSTAYMELRRLTSEDSAVYYCARGGWGIYYAMDYWGQGTSVTVSS
VL: DIQMTQSPASLSASVGETVTITCRASENIYSYLTWYQQKQGKSPQLLVYNAKTLAEGVPSRFSGSGSGTQFSLKINSLQPEDFGSYHCQHHSVTPLTFGAGTKLELK
notes: murine monoclonal, isotype G2a; also called murine Ab10
B4: Ab5 (antibody, V domains shown)
VH: QVQLQQPGAELVRPGTSVKLSCKASGYTFTSFWMHWVKQRPGQGLEWIGVIDPSDTYTNYNQKFKGKATLTVDTSSSTAYMQLSSLTSEDSAVYYCARGDYSNWFTYWGQGTLVTVSA
VL: DVVMTQTPLSLPVSLGDQASISCRSSQRLVHSNGNTYLHWYLQKPGQSPKLLIYKVSNRFSGVPDRFSGSGSGTDFTLKISRVEAEDLGVYFCSQSTHVPWTFGGGTKLEIK
notes: murine monoclonal, isotype G2a; also called murine Ab5
B5: Ab11 (antibody, V domains shown)
VH: EVKLVESGGGLVQPGGSLKLSCAASGFTFSDYYMFWVRQTPEKSLEWVAYISNGGGSTYYPDTVKGRFTISRDNAKNTLYLQMSRLKSEDTAMYYCSRQLFYYGSRGAMGYWGQGTSVTVSS
VL: B4 VL with V3L, R28S, L29I, H39E, F92Y, S94F, S96G, T97S, W101F, G105S
notes: murine monoclonal, isotype G1; also called murine Ab11
B6: Ab7 (antibody, V domains shown)
VH: QVQLQQPGAELVMPGTSVKLSCKASGYTFTSYWIHWVKQRPGQGLEWIGEIDPSDSYTNYNQKFKGKATLTVDRSSSTAYMQLSSLTSEDSAVYYCGRSFFTNWFAYWGQGTLVTVSA
VL: B4 VL with R28S, S81N, W101F, G105S
notes: murine monoclonal, isotype G1; also called murine Ab7
B7: Ab13 (antibody, V domains shown)
VH: B4 VH with T56S, Y57H, D73N, Q82H
VL: B4 VL with L9F, R28S, G89E, V90L
notes: murine monoclonal, isotype G2a; also called murine Ab13

biological target: T1, human PRLR ECD-Fc fusion protein; assay: ELISA on ECD
In short: (§1)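 EC50 values derive from fitted binding curves of antibody serial dilutions (1 h) on captured PRLR. Detection used an HRP-conjugated secondary (1 h), TMB development for 3–5 min, an H₂SO₄ stop and a 450 nm read, with all steps in Tween/PBS pH 7.4 buffer.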

Row | Binder | EC50 [nM]
1 | B1 | 0.069
2 | B2 | 0.086
3 | B3 | 0.147
4 | B4 | 0.071
5 | B5 | 0.093
6 | B6 | 0.098
7 | B7 | 0.07

Biological target: T2, cyno PRLR ECD-his6 protein
Assay: ELISA on ECD
In short: as §1

Row | Binder | EC50 [nM]
8 | B1 | < 4
9 | B4 | 0.095
10 | B5 | 0.153
11 | B6 | 0.202
12 | B7 | 0.143

biological target: cyno PRLR on Baf3-cyPRLR cells (cyno); assay: cell-based or functional assay

Row | Binder | Baf3-cyPRLR proliferation IC50 [µg/mL]
13 | B1 | > 30
14 | B2 | 0.44
15 | B3 | > 10
16 | B4 | 0.38
17 | B5 | 1.2
18 | B6 | 0.3
19 | B7 | 0.85

biological target: T3, human PRLR on cells; assay: cell-based or functional assay

Row | Binder | T47D pPRLR ELISA IC50 [µg/mL] | Baf3-hPRLR proliferation IC50 [µg/mL]
20 | B1 | 0.538 | 
21 | B2 | 0.039 | 0.26
22 | B3 | 0.362 | 3.14
23 | B4 | 0.038 | 0.24
24 | B5 | 0.047 | 1.11
25 | B6 | 0.08 | 0.28
26 | B7 | 0.047 | 0.32

biological target: T4, mouse PRLR on Baf3-mPRLR cells; assay: cell-based or functional assay

Row | Binder | Baf3-mPRLR proliferation IC50 [µg/mL]
27 | B1 | > 30
28 | B2 | > 30
29 | B3 | > 30
30 | B4 | 1.03
31 | B5 | 18.5
32 | B6 | 3.55
33 | B7 | 4.69
